Results reported in the DeepSol protein solubility set.

Experiment: soluble on expression in E. coli; label from the status in PepcDB or PDB records

| Sequence | soluble on expression in E. coli |
| --- | --- |
| MSLENIEKIEVRGIRASNKANINEKRFSNAVVDAVTAEDIGKFPDSDVGQALGRVPGVTVGRTFGQGSSVSIRGTDPLMTLTTLNGQNVASTGWYDQMNVDRSFNYSMLPSELIGGMEVYKSTQANLVEGGIGGTVIVKTRKPLDMDANSVFASVKGEYGSVNEDVAPELSGLYSWKNDDETFGVLLAGSYIDREYLRTGTEADLDWGGRSSVQPSSFLQEQERTALDATVQFRPTDNLEFGAHVLSLKLGADSIGANMYIETDTNWGEGASHCKQFNAAGVCTLSVTPESDPSNVFFQNWARKGEMTSDTFELNADYKGDGFAISGVAGKTKAEGGTQMSANFGYGWWGDKFGQVKWAGTVDATGKQIDINGRDMGFTQDQLDTTVGTSTWTGIKGPNSDEETYLQLDVDFDLDFGVINKFETGVRYTQHEFEKSEYRAIYDPAKKNEFKTSDLYSGTMKLGYDGWTIPKADLDAMINATESLVDQFAYSRSAYGLIEEDNFSMYGMFSFDGEGFRGNFGLRYIQTDVTSSGHIIDNSPADILGVNQGWSEEIHSISDSYSDVLPSFNISFDLAPDLILRMSAGQAITRPNYDNLFLSTSTGYPDDRRGNEEITYGNPGLKPMKSSQADLSLEYYYGDGNLVSATYFIKDISNFIVATTQYNQQIGVVNNDLETPADNWTVNNYENAGGGEIDGIELQLNHAFENGFGVNANYTYADGTAPAEVYTDNIGMFTESSKHSANLVGYWENDDFSARAAYNWRSEYMVREYGKYYGNRMHDAFGTLDVTLGWNVTEAIALRLEIVNLTAEDDVQYGAAGVGTEVKPALQDDFPAWSFKGETTYKLGASFVFEGHHHHHH | not soluble |
| MSLENIMTLPKIKQVRAWFTGGATAEKGAGGGDYHDQGANHWIDDHIATPMSKYRDYEQLRQSFGINVLGTLVVEVEAENGQTGFAVSTAGEMGCFIVEKHLNRFIEGKCVSDIKLIHDQMLNATLYYSGSGGLVMNTISCVDLALWDLFGKVVGLPVYKLLGGAVRDEIQFYATGARPDLAKEMGFIGGKMPTHWGPHDGDAGIRKDAAMVADMREKCGEDFWLMLDCWMSQDVNYATKLAHACAPYNLKWIEECLPPQQYEGYRELKRNAPVGMMVTSGEHHGTLQSFRTLSETGIDIMQPDVGWCGGLTTLVEIAAIAKSRGQLVVPHGSSVYSHHAVITFTNTPFSEFLMTSPDCSTMRPQFDPILLNEPVPVNGRIHKSVLDKPGFGVELNRDCNLKRPYSHEGHHHHHH | soluble |
| MSLENISQKYSCSIVPLAEKKIFSVNDGLNVILKSLEDTKAEDIVSIDIQGKSSLADYMVIASAHSQRHVSSVADHLLRTWKDSGYGRASVEGLTEGNWVLIDTGDIIIHLFRPEIRLFYNLEKMWLTPDLNNTKLALFGDH | not soluble |
| MSLENKIIFVAGACGRIGKALCEKILLSKGIPILADINKECLNKLQENLETNFKTKLLSLELDITKQESLQTALQKSQERYGKIDAFVNSSYPFGKDWGKTPYYELKYEQICESLNLHLAGFMLAAQEFVKFFKQQGYGNIINLSSIMGVYAPKFENYEGTSMQSSLEYSVIKAGINHMSSWLAKELFNQNIRVNTLASGGILDNQNELFLKAYRKCCASKGMLDADDICGTLVFLLSDESKFITGQTLVVDDGWGLEGHHHHHH | soluble |
| MSLENLARFLSTTLKQLRQQRGWSLSRLAEATGVSKAMLGQIERNESSPTVATLWKIATGLNVPFSTFISPPQSATPSVYDPQQQAMVITSLFPYDPQLCFEHFSIQMASGAISESTPHEKGVIEHVVVIDGQLDLCVDGEWQTLNCGEGVRFAADVTHIYRNGGEQTVHFHSLIHYPRSEGGSHHHHHH | soluble |
| MSLENLKNIQPREDFNWEEFEAGGVHAAVSRQEQEAAYDKTLNTIKEKEVVMGRVTAINKREVVINVGYKSEGVVPATEFRYNPELKVGDEVEVYIENQEDKKGQLVLSHRKARAARSWERVNEALEKDEIVKGYVKCRTKGGMIVDVFGIEAFLPGSQIDVRPIRDYDAFVEKTMEFKIVKINQEYKNVVVSHKVLIEAELEQQKKEIIGKLEKGQVLEGIVKNITSYGVFIDLGGVDGLIHITDLSWGRVAHPEEIVQLDQKINVVILDFDEDRKRIALGLKQLMPHPWDALDSELKVGDKVKGKVVVMADYGAFVEIAQGVEGLIHVSEMSWTQHLRSAQDFLHVGDEVEAVILTLDREERKMSLGLKQLKPDPWADIETRFPVGSRHHARVRNFTNFGVFVEIEEGVDGLIHISDLSWTKKIKHPSEFTEVGADIEVQVIEIDKENRRLSLGHKQLEENPWDVFETVFTVGSIHEGTVIEVMDKGAVVSLPYGVEGFATPKHMVKEDGSQAVLEEKLPFKVIEFNKDAKRIIVSHSRVFEDEQKMAQREANAERKAEAKAAQKEAAAEAANPAQAVEKATLGDLGELAALKEKLSENEGHHHHHH | soluble |
| MSLEPVFQLRKELNVFASEEGGATEDISSYAATADSSGITEWNTSDKFTNEMTLTENAKYTVSQLAPNLSFLPEQATDLTGAVDYYSGNALCNDRENLYIWPFNSPQRRLACIRIPLHEEHEVLSGAPLCCFTWPSAGEESEQTKSAGVLIVHANSGLVQFYEDIHTINSVSTLISKSRVIQLDLRFRDREHATDVVNAEPSGILVATSFGRLLLLTIRDSSGKPCLKLRQQLIKSQVGFFSGAMNTFKDIVAIKPSLITGKGERLLLTITRGGELKIWNVSATMSSYKRVEVNVYQQILESLQELYPFAYGSLQILDLNPLPSDPYSLLVLSSISDGKETYYILTAIKVEESSFSIFSVYRLNTYTKANDKKPRLFIAGDLENGEQPIEPQNVPVYLLFEDAVVITQAFTQLDSNYPLRKKWEDLVSLKEDSMVLGHGNDEKALYLINGNRGVVKIEAKMEPSEDYRFVKSHIDQAVYFSEGHHHHHH | soluble |
| MSLERAKNSDLLRESLTTEELLLISNFAKKKGADSVFFKIIEKLDLKFRLSSFGLEVKNFLMKSKLTGDELTKLTPEILKNKTYENKKFRAYNIHIPSAKTFIGRANSYLDYISKIKDKLVGLGFQEFDGPLVETEFFNNDALFMPQFHPSRDIKDVYYISDPSMQESLPEPYFSNVKLAHETGYATGSRGWRYSFSEDLSKRLVLRTHGTVLSAKQLINAKNPSRYFGVIRCFRYDQVDATHGVDFYQTEGIVIEDGVSIKTLLGLLEIFAKELAGATEIKYVPAYFPFTEPSIEIHVKHPVLGWFELGGSGIFRPEVTKPLGIDLPVIAWGIGIDRMALMHLGLNDLRDLFTYDIGDVILRRGKIDAKVRNEGHHHHHH | not soluble |
| MSLETLRIANRMLGYAAYEWRLSSLDGQKVMSSSGICLEVDTCLADERRYVSGENRPEMAIICSGIDVDQHVNKSVNAWLREAYNRGIAIGSLCTAAHILAQAGLLNGKRCAIHWENLPGFSEAFPQVEVYADLFEVDSNIYTCAGGTASLDMMLSLIGQDFGENLVNRVCEQQLTDRVREGHHHHHH | not soluble |
| MSLETQWTRMTADEAAEIIQHNDMVAFSGFTPAGSPKALPTAIARRANEQHEAKKPYQIRLLTGASISAAADDVLSDADAVSWRAPYQTSSGLRKKINQGAVSFVDLHLSEVAQMVNYGFFGDIDVAVIEASALAPDGRVWLTSGIGNAPTWLLRAKKVIIELNHYHDPRVAELADIVIPGAPPRRNSVSIFHAMDRVGTRYVQIDPKKIVAVVETNLPDAGNMLDKQNPMCQQIADNVVTFLLQEMAHGRIPPEFLPLQSGVGNINNAVMARLGENPEIPPFMMYSEVLQESVVHLLETGKISGASASSLTISADSLRKIYDNMDYFASRIVLRPQEISNNPEIIRRLGVIALNVGLEFDIYGHANSTHVAGVDLMNGIGGSGDFERNAYLSIFMAPSIAKEGKISTVVPMCSHVDHNEHSVKVIITEQGIADLRGLSPLQRARTIIDNCAHPMYRDYLHRYLENAPGGHIHHDLSHVFDLHRNLIATGSMLGEGHHHHHH | soluble |
| MSLEYKVEDVSPVKKKVNVTVPVEEVDAALGAAIAMYRTSVNLDGFRKGKVPASIVENRFRKEIYAEATQDLVNVHINEIVTSLAVSPLSRIDFDGGELERGKEFSYTISFEVMPQFDLPDYEGFAVEQEKAVVDEKEVDEVIARIRRNMAELVPVAETRPGADGDVVVLDFAAFENGEPIEGVSAENFQLSLGEKQSLEDFENLVKTIPAGQEAEGPITFPDDFLNPDFAGKTVTMKVKVHAVKERRLPEIDDALAQKAGGFESMEKMRETVVTSYMQSREQLHKATAQKSMLDKLLKMVDFALPESMVDMYVGNLIEDMRVKMERQGRGLESLGKTPEQLREQVLPEAQQIARSQIFLLAAGRKEAVEVSEQEVDGQLQQLAMRSGQDFDTLKDYYVRNGLIFNLRDRLIADKAMDAIYAKANVTMVDPAPAEGHHHHHH | soluble |
| MSLFHDVRFPVSLSFGARGGPERRTEIVTLANGAEERNTPWAHSRRRFDAGMGLRSLDDLETVIAFFEARAGQMHAFRWKDWSDFKSCRPSASPAPTDQLLGMGDETTATFQLVKHYGTGGDTYARPITRPVAGTVQVAVGGSPVTEGVEWSVDTATGMVTFTHPPDVGGEVTAGFEFDVPVRFDTDRIETSLASFNAGEVPDLPVVEVRPEGHHHHHH | soluble |
| MSLFLSNVILHQLRKNDNDELVVNYRAESLRNDTSTENLVAELHRVFNAKAGKGFGCFKSDSEFQLWLQEMRRGTLPFYEFSQQSAQRLKNELAKYPFADEGILVMAEYQSLATDYLFIGLLPLNQSLKVTEGLDISATDYLDINKMDIVARIDLSSYETDKESKRYLSYIKGRVGRKVADFFLDFLQADIGLDTKQQNQVLMQAVEDFCADAKFEKEEVISYKKQVYEYCNDQIKAGDEVRVQELSGELPPSNEGVNFFDFTREQGYQLEESFPADRSTVRKLTKYVGAGGGLNLSFDSLLLGERVFYDPETDTLTIKGTPPNLEHHHHHH | not soluble |
| MSLFSDVAETSSFVFAVAGADDEVVLETIRLALKQKLGKFLLFGKKEDKTLTANESVTWIQTDTAEAAAQGAILAVKNKEADILVKGFIPTATLMHHVLKKENGLRTDQLLSQIAIFDIPTYHKPLLITDCAMNVAPKTKEKIAITENALAVAHQIGITNPKIALLSAVEEVTAKMPSTLEAQEVVQHFGNQISVSGPLALDVAISKEAALHKGITDSSAGEADILIAPNIETGNALYKSLVYFAGAKVGSAVVGAKVPIVISSRNDSPENKLASFILTVRLVEKEGHHHHHH | soluble |
| MSLGAALSDTNYAVIYDLHSHTTASDGLLTPETLVHRAVEMRVGTLAITDHDTTAAIPAAREEISRSGLALNLIPGVEISTVWENHEIHIVGLNIDIAHPAMRDFLAQQTERRQARGRLIAERLEKAHIPGAWEGALRLANGGAVTRGHFARFLVECGKAATMADVFKKYLARGKTGYVPPQWCTIEQAIDVIHHSGGKAVLAHPGRYDLSAKWLKRLVAHFADHHGDAMEVAQCQQSPNERTQLATLARQHHLWASLGSDFHQPCPWIELGRKLWLPAGVEGVWQTWEQPQISEGHHHHHH | soluble |
| MSLGAQTLEYWVYSDFAQGEALALQQDFIKEFQESHPGVTVNIVGKGDDDLTAGQIAGAASGNLPDVFMNAVGVGAQLVDVGALANIHDKWMAMPEEFRAQFNKGAVENCAPRPEEMYCIPYTGYGTLLFRNLTVLEEAGIDTSAPPADWADWLAQMEKVKAAGKFAIPDQALVFNSIAEMYGVTGDVSTWGIDWESKTTRIDPAVMTSVLEKFVAMQPLTSGTSRNDQATKDLFVTNQLAFHTIGPWVNPTYVEAVENSGLKYDFVLMPGETADKHGGIKNFEIVGVAPGENLDLAFEFATYITAKEQMARWAKLLSRYNSNDAAMAEADVAALPLVARSVAAVEVTMDVSPPYLIQPVPACYQSTVVDYVSATADGEFTPEEGAAEMIAELNDCLAGEGHHHHHH | soluble |
| MSLGDRFYDLISALHKSVRGSAPDAALYWYARILTAGGDPLYVARRLLAIASEDVGNADPRAMQVALAAWDCFSRVGAYEGERAIAQAIIYLSVAPKSNAVYTAFNTAKQQAKDLPDYDVPPHLRNAPTNLMKELGYGTEYRYAHDEPNAYAAGENYFPPELKDTQYYFPTNRGMEIQIKEKLERLREQDKSTEGHHHHHH | soluble |
